# Data reported in US20240279318A1 (NANJING LEGEND BIOTECH, published 2024).
# Positions count from the first letter of the chain named. Like-named read-outs stand apart in the source and are kept apart here.
# B1: AS170036 VL1VH1-VHS57R (scFv)
# scFv: QSALTQPRSVSGSPGQSVTISCAGTSSDVGSENYVSWYQQHPGKAPKLMIYQVNKRASGVPDRFSGSKSGNTASLTISGLQAEDEADYYCASYRSSDHNIVFGGGTKLTVLGGGGSGGGGSGGGGSEVQLVESGGGLVQPGGSLRLSCAASGFTFSSYAMSWVRQAPGKGLEWVSTINSGTGRPYYADSVKGRFTISRDNSKNTLYLQMNSLRAEDTAVYYCAKNFFDGSWFLGPPAMDYWGQGTLVTVSSHHHHHH
# B2: AS190259 scFv-mIgG2aFc (Fc fusion, not shown: a dimerising Fc or GST)
# chain: QSVVTQPSAVSVSLEETATITCQGGGYYVNWYQQKPGQAPVLVIYLNTNRPSGIPERFSASKSGGTATLTINGAQAEDEAAYYCQSADSSGNSAVFGGGTHLTVLGGGGSGGGGSGGGGSQVQLVQSGGGLVQPGGSLRLSCAASGFTFSSYAMSWVRQAPGKGLEWVSAINSGGGSTYYADSVKGRFTISRDNAKNTLYLQLNSLKTEDTAMYYCAKAASGYGGSWWGDATLDAWGQGTLVTVSS
# notes: Camel scFv; i647-labelled for flow cytometry
# B3: AS190259 VL1VH1 scFv-mIgG2aFc (Fc fusion, not shown: a dimerising Fc or GST)
# chain: SSELTQDPAVSVALGQTVRITCQGGGYYVNWYQQKPGQAPVLVIYLNTNRPSGIPDRFSGSSSGNTASLTITGAQAEDEADYYCQSADSSGNSAVFGGGTKLTVLGGGGSGGGGSGGGGSEVQLVESGGGLVQPGGSLRLSCAASGFTFSSYAMSWVRQAPGKGLEWVSAINSGGGSTYYADSVKGRFTISRDNSKNTLYLQMNSLRAEDTAVYYCAKAASGYGGSWWGDATLDAWGQGTLVTVSS
# notes: Humanized
# B4: AS190259 VL2VH1 scFv-mIgG2aFc (Fc fusion, not shown: a dimerising Fc or GST; small tags and cut ends)
# scFv: B3 chain with R19T, D81A
# Columns and labels:
# [1] = biological target: PTP4A1 peptide/HLA-A*02:01 complex (recombinant) (human); test: SPR
# [2] = biological target: ARNTL peptide/HLA-A*02:01 complex (recombinant) (human); test: SPR
# [3] = biological target: RCL1 peptide/HLA-A*02:01 complex (recombinant) (human, UniProt P16213 21-119 (Pongo pygmaeus entry)); test: SPR
# [4] = biological target: OR51B6 peptide/HLA-A*02:01 complex (recombinant) (human); test: SPR
# [5] = biological target: BRCA2 peptide/HLA-A*02:01 complex (recombinant) (human); test: SPR
# [6] = biological target: OR6C1 peptide/HLA-A*02:01 complex (recombinant) (human); test: SPR
# [7] = biological target: CDC14A peptide/HLA-A*02:01 complex (recombinant) (human); test: SPR
# [8] = biological target: OR1I1 peptide/HLA-A*02:01 complex (recombinant) (human); test: SPR
# [9] = biological target: ATG9A peptide/HLA-A*02:01 complex (recombinant) (human); test: SPR
# [10] = biological target: ZNF566 peptide/HLA-A*02:01 complex (recombinant) (human); test: SPR
# [11] = biological target: RP1 peptide/HLA-A*02:01 complex (recombinant) (human, UniProt P16213 21-119 (Pongo pygmaeus entry)); test: SPR
# [12] = biological target: NR2E1 peptide/HLA-A*02:01 complex (recombinant) (human); test: SPR
# [13] = biological target: T1, AFP158/HLA-A*02:01 complex (human); test: SPR, crude scFv captured;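 further: Peptide–MHC complex flowed at several concentrations over sensorchip-captured scFv, Kd derived from on- and off-rates obtained from the association and dissociation curves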
# T1 construct: biotinylated on the BSP by BirA for ELISA and panning; also called biotinylated AFP158/HLA-A*02:01 complex; Bio-AFP158
# Description: The experiment was carried out as follows. The crude scFv protein were captured onto the sensorchip. Different concentrations (320, 160, 40 nM) of AFP158/HLA-A*02:01 complex flowed over the sensorchip surface, and were allowed to bind the antibody fragment for 100 s followed by injection of the running buffer to allow dissociation of the complex. On-rate (kd) and off-rate (kd) were calculated based on association and dissociation curve, and were used to estimate the equilibrium dissociation constant (KD).
# [14] = biological target: T1, AFP158/HLA-A*02:01 complex; test: SPR; vs AS170036 VL1VH1
# [15] = biological target: T1, AFP158/HLA-A*02:01 complex; test: SPR; vs AS170036 VL1VH1; remark: listed apart in the source
# [16] = biological target: T1, AFP158/HLA-A*02:01 complex; test: SPR, scFv-mIgG2aFc from supernatant captured, complex as analyte
# Description: (§1) The binding affinity between selected antibodies and AFP158/HLA-A*02:01 complex was determined by surface plasmon resonance (SPR) on a BIAcore T200 instrument (GE Healthcare). The experiment was carried out as follows. The purified sdAb/scFv-mIgG2aFc protein were captured through mIgG2a-Fc onto the sensorchip. […] On-rate (kₐ) and off-rate (kd) were calculated based on association and dissociation curve, and were used to estimate the equilibrium dissociation constant (KD).
# Humanized heavy chains and light chains were combined, and used to produce a series of humanized antibodies. These antibodies were synthesized as scFv-mIgG2aFc and transiently produced using HEK293 cells. The antibodies in the supernatant were subjected to SPR affinity assessment.
# [17] = biological target: T1, AFP158/HLA-A*02:01 complex; test: SPR, antibody captured via mIgG2a-Fc, complex as analyte
# Description: as §1
binder,measurement,setting,value
B1,binding result,[1],no binding
same,binding result,[2],no binding
same,binding result,[3],no binding
same,binding result,[4],no binding
same,binding result,[5],no binding
same,binding result,[6],no binding
same,binding result,[7],no binding
same,binding result,[8],no binding
same,binding result,[9],no binding
same,binding result,[10],no binding
same,binding result,[11],no binding
same,binding result,[12],no binding
same,Kd,[13],88 nM
same,Affinity increase,[14],> 2 fold
same,Affinity increase,[15],2.8 fold
B2,Kd,[16],220 nM
same,koff,[16],0.25 s⁻¹
same,kon,[16],1.1e+06 M⁻¹ s⁻¹
same,Kd,[17],390 nM
same,koff,[17],0.14 s⁻¹
same,kon,[17],350000 M⁻¹ s⁻¹
B3,Kd,[16],200 nM
same,koff,[16],0.39 s⁻¹
same,kon,[16],2e+06 M⁻¹ s⁻¹
B4,Kd,[16],220 nM
same,koff,[16],0.3 s⁻¹
same,kon,[16],1.4e+06 M⁻¹ s⁻¹
